PMC3072266

Biological target: 3AB wild type (poliovirus type 1 (Mahoney), UniProt P03300 1457-1565)
Experiment: EMSA

Sequence of 3AB wild type (P03300 1457-1565): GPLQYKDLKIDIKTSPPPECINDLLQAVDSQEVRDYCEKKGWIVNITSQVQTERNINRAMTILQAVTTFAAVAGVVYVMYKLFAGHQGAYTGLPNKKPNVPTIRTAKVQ

## GAGUGCACCAUAUGCCAUUCAGGCUACGCAACUGUUGGGA (ssRNA) [40-mer RNA]
  binding result: binds
